The record followed here is US20250171505A1 (CENTRE NATIONAL DE LA RECHERCHE SCIENTIFIQUE CNRS, published 2025).

One may read the Kd as the free concentration of one partner at which half of the binding sites on the other are occupied at equilibrium, for simple one-to-one binding. High values mean weaker binding, low ones tighter binding.

Assay [1] concerns the target T1, VSV Gth, soluble form of the ectodomain of G (amino acid residues 1-422, generated by thermolysine l (vesicular stomatitis virus, Indiana …, UniProt P03522 17-438)).
T1 sequence: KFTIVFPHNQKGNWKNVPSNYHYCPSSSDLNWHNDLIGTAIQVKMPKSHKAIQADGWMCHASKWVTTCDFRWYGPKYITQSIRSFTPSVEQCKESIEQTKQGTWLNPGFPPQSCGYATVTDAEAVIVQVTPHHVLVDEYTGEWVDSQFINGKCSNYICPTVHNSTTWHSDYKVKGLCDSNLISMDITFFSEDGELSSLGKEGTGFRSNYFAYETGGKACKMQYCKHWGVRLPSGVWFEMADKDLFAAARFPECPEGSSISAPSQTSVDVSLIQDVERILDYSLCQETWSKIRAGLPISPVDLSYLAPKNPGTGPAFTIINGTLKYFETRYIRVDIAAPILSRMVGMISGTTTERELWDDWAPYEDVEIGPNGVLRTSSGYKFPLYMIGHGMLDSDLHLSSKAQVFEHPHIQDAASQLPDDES

The target in assay [2] is T1, VSV Gth, soluble form of the ectodomain …. Briefly: ITC at 20 C, pH 8.0, CR domain injected into Gth.
Assay [3] has the same target. Description: ITC at 20 C, pH 8.0.

B1: CR2 monovalent domain of human LDL-R (isolated, GST removed) (receptor)
chain: not shown
notes: domain: CR2
B1 came in with a Kd in assay [1] of 7.3 µM. The same molecule came in with a stoichiometry in assay [2] of 1.

B2: CR1 monovalent domain of human LDL-R (isolated, GST removed) (receptor)
chain: not shown
notes: domain: CR1
Regarding B2, the binding result in assay [3] was “no binding”.

B3: CR3 monovalent domain of human LDL-R (isolated, GST removed) (receptor)
chain: not shown
notes: domain: CR3
In assay [1], B3 displayed an equilibrium dissociation constant (Kd) of 4.3 µM. The molecule further displayed a stoichiometry in assay [2] of 1.
